{"source": "paper PMC11338637", "key": {"[1]": {"target": "Hir complex (Hir1/Hir2/Hir3/Hpc2) (S. cerevisiae) (UniProt P32479)", "test": "SPR"}, "[2]": {"target": "ctHir3 (Chaetomium thermophilum, UniProt G0S723 1-2235)", "test": "fluorescence polarization"}}}
{"molecule": "yeastAsf1/humanH3.3/humanH4 (from UniProt P32447 1-279; P84243 1-136; P62805 1-103) (complex)", "values": [{"measurement": "KD1 (heterogeneous ligand model, fast site of weak affinity)", "setting": "[1]", "value": 196, "unit": "nM"}, {"measurement": "KD2 (heterogeneous ligand model, slow site of strong affinity)", "setting": "[1]", "value": 18, "unit": "nM"}]}
{"molecule": "AAAACAAAUAUGCAUAUUAUCGAGAGG (ssRNA)", "note": "[ssRNA probe]", "values": [{"measurement": "Kd", "setting": "[2]", "value": 292, "unit": "nM"}]}
{"molecule": "TAGGGAGTAATCCCCTTGGCGG (ssDNA)", "note": "[ssDNA probe]", "values": [{"measurement": "Kd", "setting": "[2]", "value": 531, "unit": "nM"}]}
